According to patent US20070077239A1 (BOARD OF TRUSTEES OF THE UNIVERSITY OF ILLINOIS, published 2007):
Each block holds one binder with its values, some of them ahead of it. Ends that are not written are not given here.

Experiments:
human serum albumin [1] = molecular target: T1, human serum albumin (human, UniProt P02768 25-609); experiment: 125I-HSA dot-blot on peptide immobilised on nitrocellulose
T1 construct: also called HSA
Description: (§1) Peptides were immobilized on nitrocellulose membranes and non-specific binding was blocked with bovine γ-globulin (2 mg/ml in PBS) for 1 h at 22° C. Membranes were washed 2× with PBS and incubated with ¹²⁵I-labeled HSA ([…]) for 2 h at 22° C. Membranes were then washed 4× with PBS containing 0.05% Tween-20 (PBST) and autoradiography was performed. In some experiments, the membranes were directly counted to determine the membrane-associated radioactivity.
(§2) Peptides were immobilized on nitrocellulose membranes and then incubated with 1 ml of 0.3 μM ¹²⁵I-HSA in PBS for 2 h. Other details were described in Example 1. Non-specific binding was determined by incubating membranes with ¹²⁵I-HSA in the absence of any peptides. Results are shown mean±S.E. for three separate experiments made in triplicate.

human serum albumin [2] = molecular target: T1, human serum albumin; experiment: dot-blot, 1.0 nmoles peptide per filter on nitrocellulose, 0.3 µM 125I-HSA, 2 h
Description: as §1, §2

human serum albumin [3] = molecular target: T1, human serum albumin; experiment: dot-blot, 2.5 nmoles peptide per filter on nitrocellulose, 0.3 µM 125I-HSA, 2 h
Description: as §1, §2

human serum albumin [4] = molecular target: T1, human serum albumin; experiment: dot-blot, 5.0 nmoles peptide per filter on nitrocellulose, 0.3 µM 125I-HSA, 2 h
Description: as §1, §2

human serum albumin [5] = molecular target: T1, human serum albumin; experiment: dot-blot, 10.0 nmoles peptide per filter on nitrocellulose, 0.3 µM 125I-HSA, 2 h
Description: as §1, §2

human serum albumin [6] = molecular target: T1, human serum albumin; experiment: HSA-Sepharose affinity chromatography of human lung extract, elution at pH 4.0, SDS-PAGE, MALDI-MS
Description: Protein purification and MALDI-MS: Human lung tissue (180 g) was washed, minced, and homogenized with 20 volumes of buffer A (20 mM Hepes/Tris/0.15 M NaCl/0.1 mM phenylmethylsufonylfluoride [PMSF]/30 pM benzamidine [BM], pH 7.4). The homogenate was centrifuged at 1000×g for 10 min and the supernatant was centrifuged at 100,000×g for 60 min. The pellet obtained was solubilized using 2.5% sodium cholate and 4 M urea (Tiruppathi et al., Proc. Natl. Acad Sci. USA, 93:250-254 (1996)). The solubilized extract was concentrated by ethanol precipitation and re-extracted with Triton X- 100 (Tiruppathi et al., Proc. Natl. Acad Sci. USA, 93:250-254 (1996)). The Triton X-100 concentration in the extract was adjusted to 0.2% and applied on HSAsepharose column (1×10 cm) pre-equilibrated with buffer-B (10 MM Tris-HCl, 0.5 MM EDTA, pH 7.4 containing 0.1 mM PMSF, 30 [M BM, and 0.2% Triton X-100). The column was washed and bound proteins were eluted with 20 ml of 0.1 M citrate buffer pH 4.0 containing 0.2% Triton X- 100. The proteins eluted were separated on SDS-PAGE, stained with Coomassie Brilliant Blue R-250 (CBBR-250) (FIG. 1A). The protein bands excised were digested with trypsin and peptides were analyzed using MALDI-MS at Yale University Biotechnology Resource Laboratory (New Haven, Conn.). The peptide masses were compared with known sequence using Profound search analysis on OWL database. […]

rat serum albumin = molecular target: T2, rat serum albumin (rat, UniProt P02770 25-608); experiment: binding of albumin to the immobilised peptide; details not given
T2 construct: also called RSA
T2 sequence (P02770 25-608 limits assumed): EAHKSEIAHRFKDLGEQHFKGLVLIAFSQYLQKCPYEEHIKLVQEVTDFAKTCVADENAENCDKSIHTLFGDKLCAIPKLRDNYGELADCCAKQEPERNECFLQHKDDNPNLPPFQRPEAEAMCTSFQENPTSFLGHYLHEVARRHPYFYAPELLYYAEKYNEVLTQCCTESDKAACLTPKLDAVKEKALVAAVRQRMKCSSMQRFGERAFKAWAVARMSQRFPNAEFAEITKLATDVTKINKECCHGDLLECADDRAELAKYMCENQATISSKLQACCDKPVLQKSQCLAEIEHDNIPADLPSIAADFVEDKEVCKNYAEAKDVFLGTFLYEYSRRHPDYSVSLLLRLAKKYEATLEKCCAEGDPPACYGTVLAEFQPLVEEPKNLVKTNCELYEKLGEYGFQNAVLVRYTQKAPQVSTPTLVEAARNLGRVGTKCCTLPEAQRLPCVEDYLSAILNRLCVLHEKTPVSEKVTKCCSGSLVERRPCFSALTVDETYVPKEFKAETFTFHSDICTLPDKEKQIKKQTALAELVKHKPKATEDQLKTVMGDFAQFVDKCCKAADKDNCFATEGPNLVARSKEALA

binding result (human serum albumin [1]): no binding
125I-HSA bound (pmoles/filter) (human serum albumin [2]): 0.01 pmoles/filter
125I-HSA bound (pmoles/filter) (human serum albumin [3]): 0.11 pmoles/filter
125I-HSA bound (pmoles/filter) (human serum albumin [4]): 0.14 pmoles/filter
125I-HSA bound (pmoles/filter) (human serum albumin [5]): 0.19 pmoles/filter
Binder: GLATELGSLNPGWDGEGLYQEAGGIVGAMV-NH2 [MPO-MT-peptide]

binding result (human serum albumin [6]): binds
B1: MPO-HC (60 kDa protein isolated from human lung tissue) (enzyme, UniProt P05164 279-745, looked up)
chain: VNCETSCVQQPPCFPLKIPPNDPRIKNQADCIPFFRSCPACPGSNITIRNQINALTSFVDASMVYGSEEPLARNLRNMSNQLGLLAVNQRFQDNGRALLPFDNLHDDPCLLTNRSARIPCFLAGDTRSSEMPELTSMHTLLLREHNRLATELKSLNPRWDGERLYQEARKIVGAMVQIITYRDYLPLVLGPTAMRKYLPTYRSYNDSVDPRIANVFTNAFRYGHTLIQPFMFRLDNRYQPMEPNPRVPLSRVFFASWRVVLEGGIDPILRGLMATPAKLNRQNQIAVDEIRERLFEQVMRIGLDLPALNMQRSRDHGLPGYNAWRRFCGLPQPETVGQLGTVLRNLKLARKLMEQYGTPNNIDIWMGGVSEPLKRKGRVGPLLACIIGTQFRKLRDGDRFWWENEGVFSMQQRQALAQISLPRIICDNTGITTVSKNNIFMSNSYPRDFVNCSTLPALNLASWREAS
notes: domain: heavy chain (HC); also called MPO heavy chain

binding result (human serum albumin [1]): no binding
125I-HSA bound (pmoles/filter) (human serum albumin [2]): 0.05 pmoles/filter
125I-HSA bound (pmoles/filter) (human serum albumin [3]): 0.06 pmoles/filter
125I-HSA bound (pmoles/filter) (human serum albumin [4]): 0.08 pmoles/filter
125I-HSA bound (pmoles/filter) (human serum albumin [5]): 0.11 pmoles/filter
B2: EARKIV peptide (peptide)
peptide: EARKIV-NH2
notes: Synthetic hexapeptide from MPO-HC; also called EARKIV motif

binding result (rat serum albumin): binds
125I-HSA bound (pmoles/filter) (human serum albumin [2]): 0.31 pmoles/filter
125I-HSA bound (pmoles/filter) (human serum albumin [3]): 1.45 pmoles/filter
125I-HSA bound (pmoles/filter) (human serum albumin [4]): 2.93 pmoles/filter
125I-HSA bound (pmoles/filter) (human serum albumin [5]): 6.55 pmoles/filter
B3: MPO-WT-peptide (MPO-HC sequence 425-454) (peptide)
peptide: not shown
modifications: C-terminal amide
notes: Immobilised on nitrocellulose in the dot-blot; also called ADS
